Reference: patent publication US6214868A, “Method for preventing or treating coronary restenosis with catechin” (Sam-A Pharm. Co., Ltd., priority 2000, dated 2001)

Legend:
Type in all cases: cell-based
p44^mapk = test: Phosphorylation of p44^mapk in rat VSMCs (western blotting); conditions: in words; western blot
Procedure: (§1) The resulting culture was incubated for 24 hours. 50 ng/ml of PDGF-BB was added thereto and kept for 5 minutes. […] The above procedure was also repeated without PDGF-BB treatment.
(§2) The VSMC was lysed and the VSMC lysate(corresponding amount to 70 μg proteins) was subjected to SDS-PAGE. The proteins separated on the gel was transferred to a nitrocellulose membrane and the membrane was saturated with Tris buffered saline(TBS) containing 3% milk protein. A primary antibody(Promega, dilution ratio: 1:5,000) for catalytically activated p44^mapk /p42^mapk whose threonine and tyrosine residues are phosphorylated, was added thereto and kept over night. The membrane was washed three times with TBS containing 0.05% Tween 20. The membrane was reacted with a horseradish peroxidase-conjugated anti-IgG secondary antibody and developed using Amersham ECL kit. Linearity of MAPK concentration-ECL signal correlation was examined using standard p42, a recombinant, activated MAPK(Upstate Biotechnology), and serially diluted artery tissue homogenate. Bands on the X-ray film were quantified using Molecular Dynamics personal laser densitometer.

rat VSMCs = test: Inhibition of VSMC growth, 3H-thymidine DNA incorporation, in the presence of PDGF-BB; conditions: in words; 50 ng/ml PDGF-BB, control data
Procedure: Each rat was suffocated with CO2, and its chest was disinfected and incised to remove the arteriae aorta. All operative apparatus and glass articles were autoclaved and all operations were conducted on a clean bench. The arteriae aorta was dipped in physiological salt solution(PSS) and its adipose tissues were removed. The resulting arteriae aorta was treated with 0.2% collagenase in an incubator maintained at 37° C. for 30 minutes. Its endothelium and adventitia were removed and the resulting arteriae aorta was ground up. A complete DMEM (DMEM containing 10% FBS, an antibiotic and glutamine) containing 0.2% collagenase was added thereto and the resulting mixture was kept at 37° C. for 4 hours while shaking with an orbital shaker.
The resulting mixture was centrifuged at 1,500×g for 5 minutes to remove the collagenase and the cell precipitate was suspended in an appropriate amount of complete DMEM. […]
The wells were washed twice with a serum-free medium, Hunger medium(Gibco), and fresh Hunger medium was added thereto. […] A 50 μl portion of the resulting reaction mixture was subjected to protein quantification. Further, a 100 μl portion of the resulting reaction mixture was added to 5 ml of a cocktail solution to measure the radioactivity, thereby determining the amount of ^3 H-thymidine incorporated into the cell. […]

p42^mapk = test: Phosphorylation of p42^mapk in rat VSMCs (western blotting); conditions: in words; western blot
Procedure: as §1, §2

B1: PDGF-BB: platelet derived growth factor(PDGF)-BB (protein, UniProt P01127 82-190, looked up)
Platelet-derived growth …: SLGSLTIAEPAMIAECKTRTEVFEISRRLIDRTNANFLVWPPCVEVQRCSGCCNNRNVQCRPTQVQLRPVQVRKIEIVRKKPIFKKATVTLEDHLACKCETVAAARPVT
modifications: BB homodimer
phosphorylated p44^mapk /p42^mapk band density (p44) (p44^mapk): enhanced density as compared with the blank | VSMC growth on PDGF-BB treatment (rat VSMCs): greatly enhances the VSMC growth | phosphorylated p44^mapk /p42^mapk band density (p42) (p42^mapk): enhanced density as compared with the blank
